Experimental data: US20240360194A1, “New Peptides as Potent and Selective GIP Receptor Agonists” (Sanofi, priority 2021, published 2024)
Values after ≈ are worked out from the molar mass of the structure shown. Numbered stars: 1 amine (or outer) side, 2 acyl side, 3 side chain; on linkers, the order of the positions; unused ones are H or OH. Square brackets hold non-standard residues; d marks the D form. Side chains are listed from the residue outwards. Ends that are not written are not given here. Peptide text beside a SMILES is read from it. * marks the point of attachment. C18 diacid = O=C(O)CCCCCCCCCCCCCCCCC(=O)*; γGlu = O=C(O)[C@H](CCC(=O)[*:2])N[*:1]; Iva = CC[C@](C)(N)C(=O)O; AEEA = NCCOCCOCC(=O)O; Aib = CC(C)(N)C(=O)O

What was measured:
[1] = Chemical stability assessment (UHPLC-UV purity loss on storage in solution); format: physicochemical; details: Chemical stability buffer system A: 20 mM phosphate buffer pH 7.4; ~300 μM
Procedure: Purity of a peptide batch was determined through UHPLC/MS prior to chemical stability measurement. The target concentration was 300 μM pure compound. Solutions from solid samples were prepared in the following buffer systems with a concentration of ˜300 μM compound based on the previously determined % purity: • Chemical stability buffer system A) 20 mM phosphate buffer pH 7.4, • Chemical stability buffer system B) 8 mM phosphate buffer pH 7.4, 14 mg/ml propylene glycol, 5.5 mg/ml phenol • Chemical stability buffer system C) 100 mM phosphate buffer pH 7.4, 2.7 mg/ml m-cresol
Prepared solutions were filtered through […] pore size and filled into sterilized glass containers under laminar flow conditions.
Glass containers were stored for 28 days at 5 and 40° C. After this time, the samples were centrifuged for 15 min at 2500 RCF. Then 1.5 μl of the undiluted supernatant were analysed with UHPLC-UV.
The chemical stability was rated through the relative loss of purity calculated by the equation: […]
The purity is calculated as
The analytical methods used were Analytical UHPLC Method B or C.
Peptide samples were prepared in Chemical stability buffer system A or B and stability was assessed as described in Methods.

[2] = Solubility assessment (UHPLC-UV of supernatant, target 10 mg/ml); format: physicochemical
In short: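 Peptides at 10 mg/ml (purity-corrected) in 100 mM phosphate pH 7.4, optionally with 2.7 mg/ml m-cresol; gentle agitation 1 h, then 5° C. overnight (24 h). Supernatant after 15 min centrifugation at 2500 RCF quantified by UHPLC-UV, with sequence-based extinction coefficients.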

[3] = biological target: human GLP-1 receptor (hGLP-1R) (Homo sapiens, UniProt P43220); assay: In vitro cellular cAMP assay for GLP-1 receptor efficacy (HEK-293 cell line over-expressing receptor); format: cell-based; details: HEK-293, 0.1% BSA
human GIP receptor [4] = biological target: T1, human GIP receptor (Homo sapiens, UniProt P48546); assay: In vitro cellular cAMP assay for GIP receptor efficacy (human adipocytes); format: cell-based; details: read-out: hGIPR Emax
T1 construct: human adipocytes endogenously expressing the human GIP receptor; host or cells: human preadipocytes (Lonza) differentiated to adipocytes
T1 sequence (P48546 22-466): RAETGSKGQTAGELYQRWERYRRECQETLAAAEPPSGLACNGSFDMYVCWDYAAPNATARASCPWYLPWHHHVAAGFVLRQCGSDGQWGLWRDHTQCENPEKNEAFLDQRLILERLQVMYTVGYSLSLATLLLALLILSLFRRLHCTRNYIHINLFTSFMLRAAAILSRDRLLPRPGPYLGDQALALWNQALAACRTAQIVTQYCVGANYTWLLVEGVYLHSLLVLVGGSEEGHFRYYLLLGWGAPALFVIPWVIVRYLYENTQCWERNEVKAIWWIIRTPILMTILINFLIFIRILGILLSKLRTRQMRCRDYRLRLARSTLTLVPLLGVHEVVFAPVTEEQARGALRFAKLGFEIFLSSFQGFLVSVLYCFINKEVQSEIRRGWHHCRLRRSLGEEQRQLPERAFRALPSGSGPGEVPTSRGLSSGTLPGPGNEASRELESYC
In short: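 cAMP is read by HTRF (665/620 nm ratio, 1 h after reagents in lysis buffer) following 30 min compound exposure at room temperature. Cells are human preadipocyte-derived adipocytes, differentiated 6 days with insulin, dexamethasone, IBMX (200 μM), PPARγ agonist and L-thyroxine, seeded 5000 per well.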

[5] = biological target: T2, human GIP receptor (hGIPR) (Homo sapiens, UniProt P48546); assay: Binding assay, displacement of [125I]GIP from HEK-293 membranes over-expressing GIPR (SPA); details: [125I]GIP displacement
T2 sequence (P48546 22-466): T1 sequence (P48546 22-466)
In short: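 Membranes from HEK-293 cells over-expressing human GIPR or GLP-1R, isolated by homogenising, sonicating and ultracentrifuging at 100000×g into HEPES/EDTA/NaCl buffer with protease inhibitors, were used for binding.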

[6] = biological target: T3, human GIP receptor (human), P48546; assay: cell-based or functional assay
T3 chain: T1 sequence (P48546 22-466)

[7] = biological target: T3, human GIP receptor (human), P48546; assay: displacement of [125I]GIP from HEK-293 membranes expressing hGIPR (SPA beads)
[8] = biological target: T4, human GLP-1 receptor (human), P43220; assay: displacement of [125I]GLP-1 from HEK-293 membranes expressing hGLP-1R (SPA beads)
T4 chain: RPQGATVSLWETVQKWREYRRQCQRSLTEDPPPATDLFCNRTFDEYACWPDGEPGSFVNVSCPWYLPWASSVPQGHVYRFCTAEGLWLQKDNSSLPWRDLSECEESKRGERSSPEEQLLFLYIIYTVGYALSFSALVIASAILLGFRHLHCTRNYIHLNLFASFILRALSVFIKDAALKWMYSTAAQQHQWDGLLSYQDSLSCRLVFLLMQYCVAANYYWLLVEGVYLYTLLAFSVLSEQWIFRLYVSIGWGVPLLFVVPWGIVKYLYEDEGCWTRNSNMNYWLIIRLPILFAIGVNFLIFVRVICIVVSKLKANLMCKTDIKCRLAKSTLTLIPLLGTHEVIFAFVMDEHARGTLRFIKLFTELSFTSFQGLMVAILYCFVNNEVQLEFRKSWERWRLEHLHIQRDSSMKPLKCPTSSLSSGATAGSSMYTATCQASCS

human GIP receptor [9] = biological target: T5, human GIP receptor (human, UniProt P48546 22-466); assay: cell-based or functional assay
T5 sequence (looked up): T1 sequence (P48546 22-466)

human GLP-1 receptor [10] = biological target: T6, human GLP-1 receptor (human, UniProt P43220 24-463); assay: cell-based or functional assay
human GIP receptor [11] = biological target: T5, human GIP receptor; assay: cell-based or functional assay; remark: listed apart in the source
human GIP receptor [12] = biological target: T5, human GIP receptor; assay: displacement of [125I]GIP from HEK-293 membranes expressing hGIPR (SPA beads)
human GLP-1 receptor [13] = biological target: T6, human GLP-1 receptor; assay: displacement of [125I]GLP-1 from HEK-293 membranes expressing hGLP-1R (SPA beads)

## CC[C@H](C)[C@H](NC(=O)[C@H](CCCNC(=N)N)NC(=O)[C@H](CC(=O)O)NC(=O)[C@H](CCCCNC(=O)COCCOCCNC(=O)COCCOCCNC(=O)CC[C@H](NC(=O)CCCCCCCCCCCCCCCCC(=O)O)C(=O)O)NC(=O)C(C)(C)NC(=O)[C@@H](NC(=O)[C@H](CO)NC(=O)[C@H](CC(C)C)NC(=O)[C@H](CC(=O)O)NC(=O)[C@H](CO)NC(=O)[C@@H](NC(=O)[C@H](Cc1ccccc1)NC(=O)[C@@H](NC(=O)CNC(=O)[C@H](CCC(=O)O)NC(=O)C(C)(C)NC(=O)[C@@H](N)Cc1ccc(O)cc1)[C@@H](C)O)[C@@H](C)CC)[C@@H](C)CC)C(=O)N[C@@H](Cc1c[nH]cn1)C(=O)N[C@@H](CCC(N)=O)C(=O)NC(C)(C)C(=O)N[C@@H](CCC(=O)O)C(=O)N[C@@H](Cc1ccccc1)C(=O)N[C@H](C(=O)N[C@@H](CCC(=O)O)C(=O)N[C@@H](Cc1c[nH]c2ccccc12)C(=O)N[C@@H](CC(C)C)C(=O)N[C@@H](CC(C)C)C(=O)N[C@@H](C)C(=O)N[C@@H](CCC(N)=O)C(=O)N[C@@H](CCC(=O)O)C(=O)N1CCC[C@H]1C(=O)N[C@@H](CO)C(=O)N[C@@H](CO)C(=O)NCC(=O)N[C@@H](C)C(=O)N1CCC[C@H]1C(=O)N1CCC[C@H]1C(=O)N1CCC[C@H]1C(=O)N[C@@H](CO)C(N)=O)[C@@H](C)CC [SEQ ID NO: 29, H2N-Y-Aib-E-G-T-F-I-S-D-L-S-I-Aib-K[{AEEA}2-gGlu-C18OH]-D-R-I-H-Q-Aib-E-F-I-E-W-L-L-A-Q-E-P-S-S-G-A-P-P-P-S-NH2] (H-Y[Aib]EGTFISDLSI[Aib]K([AEEA-AEEA-γGlu-C18 diacid])DRIHQ[Aib]EFIEWLLAQEPSSGAPPPS-NH2)
[1]
  Relative purity loss over 28 days at 40° C.: 5.6%
[2]; 24 h, pH 7.4
  Soluble amount: 9.1 mg/mL
[2]; pH 7.4, Soluble amount
  solubility at 24 h: 8 mg/mL (≈ 1590 µM)
[3]
  EC50: > 10 nM
Human GIP receptor [4]
  Emax: 119%
[5]
  IC50: 0.2 nM

## Y[Aib]EGTFISDLSI[Aib]LEEQKQ[Aib]EFIEWLLAQGPSSGEPPPS-NH2 [SEQ ID NO: 38]
[6]
  EC50 hGIPR 0% HSA (cAMP, HEK-293): 0.00019 nM
  EC50 hGIPR 0.1% BSA (cAMP, HEK-293): 0.0531 nM
  hGIPR EC50 (cAMP, human adipocytes): 0.4 nM
  hGIPR Emax (cAMP, human adipocytes): 92%
[7]
  IC50: 0.2 nM
[8]
  IC50: 73 nM

B1: SEQ ID NO: 19 (peptide)
peptide: Y[Aib]EGTFISDLSI[Aib]K([AEEA-AEEA-γGlu-C18 diacid])EEIHQ[Aib]EFIEWLLAQGPSSGAPPPS-NH2
modifications: N-terminus assumed
SMILES: CC[C@H](C)[C@H](NC(=O)[C@H](CCC(=O)O)NC(=O)[C@H](CCC(=O)O)NC(=O)[C@H](CCCCNC(=O)COCCOCCNC(=O)COCCOCCNC(=O)CC[C@H](NC(=O)CCCCCCCCCCCCCCCCC(=O)O)C(=O)O)NC(=O)C(C)(C)NC(=O)[C@@H](NC(=O)[C@H](CO)NC(=O)[C@H](CC(C)C)NC(=O)[C@H](CC(=O)O)NC(=O)[C@H](CO)NC(=O)[C@@H](NC(=O)[C@H](Cc1ccccc1)NC(=O)[C@@H](NC(=O)CNC(=O)[C@H](CCC(=O)O)NC(=O)C(C)(C)NC(=O)[C@@H](N)Cc1ccc(O)cc1)[C@@H](C)O)[C@@H](C)CC)[C@@H](C)CC)C(=O)N[C@@H](Cc1c[nH]cn1)C(=O)N[C@@H](CCC(N)=O)C(=O)NC(C)(C)C(=O)N[C@@H](CCC(=O)O)C(=O)N[C@@H](Cc1ccccc1)C(=O)N[C@H](C(=O)N[C@@H](CCC(=O)O)C(=O)N[C@@H](Cc1c[nH]c2ccccc12)C(=O)N[C@@H](CC(C)C)C(=O)N[C@@H](CC(C)C)C(=O)N[C@@H](C)C(=O)N[C@@H](CCC(N)=O)C(=O)NCC(=O)N1CCC[C@H]1C(=O)N[C@@H](CO)C(=O)N[C@@H](CO)C(=O)NCC(=O)N[C@@H](C)C(=O)N1CCC[C@H]1C(=O)N1CCC[C@H]1C(=O)N1CCC[C@H]1C(=O)N[C@@H](CO)C(N)=O)[C@@H](C)CC
notes: Synthetic peptide, 39 residues
Human GIP receptor [9]
  EC50 hGIPR 0% HSA (cAMP, HEK-293): 0.0002 nM
  EC50 hGIPR 0.1% BSA (cAMP, HEK-293): 0.0378 nM
  EC50 hGIPR 0.1% HSA (cAMP, HEK-293): 0.0015 nM
Human GLP-1 receptor [10]
  EC50 hGLP-1R 0.1% BSA (cAMP, HEK-293): > 10 nM
Human GIP receptor [11]
  hGIPR EC50 (cAMP, human adipocytes): 8 nM
  hGIPR Emax (cAMP, human adipocytes): 94%
Human GIP receptor [12]
  IC50: 2 nM

## H-Y[Aib]EGT[Iva]ISDLSI[Aib]K([AEEA-AEEA-γGlu-C18 diacid])DRIHQEEFIEWLLAQGPSSGAPPPS-NH2 (Synthetic peptide, 39 residues) [SEQ ID NO: 24]
Human GIP receptor [9]
  EC50 hGIPR 0% HSA (cAMP, HEK-293): 0.00056 nM
  EC50 hGIPR 0.1% BSA (cAMP, HEK-293): 0.0366 nM
Human GLP-1 receptor [10]
  EC50 hGLP-1R 0.1% BSA (cAMP, HEK-293): > 10 nM
Human GIP receptor [11]
  hGIPR EC50 (cAMP, human adipocytes): 0.2 nM
  hGIPR Emax (cAMP, human adipocytes): 100%
Human GIP receptor [12]
  IC50: 0.1 nM
Human GLP-1 receptor [13]
  IC50: 188 nM
